The record followed here is paper doi:10.1101/2023.07.12.548668.

For this series, the target named is XLF (UniProt Q9H9Q4). Description: NMR titration (2D lineshape, TITAN). The following applies: NMR buffer (composition, salt and pH not in material); 800 MHz, 298 K stated for relaxation measurements; EMSA buffer not given.
XLF, sequence (Q9H9Q4 whole entry): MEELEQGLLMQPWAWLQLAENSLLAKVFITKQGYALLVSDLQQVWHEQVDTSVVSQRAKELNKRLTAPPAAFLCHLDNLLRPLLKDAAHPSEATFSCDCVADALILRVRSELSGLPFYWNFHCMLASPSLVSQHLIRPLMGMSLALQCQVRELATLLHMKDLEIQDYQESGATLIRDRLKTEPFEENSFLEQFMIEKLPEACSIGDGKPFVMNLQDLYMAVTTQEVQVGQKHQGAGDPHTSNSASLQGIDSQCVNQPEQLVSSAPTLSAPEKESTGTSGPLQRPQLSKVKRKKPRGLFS

Broadly, the Kd is a measure of binding affinity in units of concentration. For the substance 18mer DNA, the Kd stood at 33.7 µM. Under 15mer DNA stands 141 µM.

Consider 21mer DNA, for which the equilibrium dissociation constant (Kd) amounted to 16.2 µM.
